In publication PMC11696677 (Communications Biology, 2025):
Where two headings read alike, the source gives them in different places.

T1: WT Kapβ2 (human, UniProt Q92973-2 1-890)
T1 sequence (looked up): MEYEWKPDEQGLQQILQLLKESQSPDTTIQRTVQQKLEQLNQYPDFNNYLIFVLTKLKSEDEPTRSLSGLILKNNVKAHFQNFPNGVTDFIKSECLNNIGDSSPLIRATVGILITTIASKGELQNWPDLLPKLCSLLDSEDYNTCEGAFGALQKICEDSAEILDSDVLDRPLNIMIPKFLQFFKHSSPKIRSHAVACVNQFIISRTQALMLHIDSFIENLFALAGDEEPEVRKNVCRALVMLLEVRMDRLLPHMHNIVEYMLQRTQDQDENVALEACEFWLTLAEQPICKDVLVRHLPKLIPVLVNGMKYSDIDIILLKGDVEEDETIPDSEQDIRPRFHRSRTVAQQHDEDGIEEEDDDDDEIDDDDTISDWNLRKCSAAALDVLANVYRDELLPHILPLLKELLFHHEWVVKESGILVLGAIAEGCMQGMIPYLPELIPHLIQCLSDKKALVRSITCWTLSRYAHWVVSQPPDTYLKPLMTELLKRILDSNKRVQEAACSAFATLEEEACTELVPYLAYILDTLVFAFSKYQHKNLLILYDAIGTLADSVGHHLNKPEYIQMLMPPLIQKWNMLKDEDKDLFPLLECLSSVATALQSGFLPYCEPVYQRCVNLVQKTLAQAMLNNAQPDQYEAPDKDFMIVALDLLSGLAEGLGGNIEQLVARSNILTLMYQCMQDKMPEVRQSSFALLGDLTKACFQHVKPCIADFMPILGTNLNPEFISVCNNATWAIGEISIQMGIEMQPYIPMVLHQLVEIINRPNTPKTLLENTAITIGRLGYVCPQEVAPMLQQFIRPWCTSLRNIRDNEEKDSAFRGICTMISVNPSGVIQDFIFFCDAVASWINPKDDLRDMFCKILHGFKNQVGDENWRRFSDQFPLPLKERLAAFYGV

T2: TAMRA-(GR)20 (TAMRA label (position not given))
T2 peptide: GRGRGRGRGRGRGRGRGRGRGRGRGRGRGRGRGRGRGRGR

T3: TAMRA-(PR)20 (TAMRA label (position not given))
T3 peptide: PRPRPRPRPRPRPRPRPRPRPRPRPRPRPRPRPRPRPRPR

B1: Kapβ2_(W460A:W730A) (receptor, human, UniProt Q92973-2 1-890, looked up)
chain: MEYEWKPDEQGLQQILQLLKESQSPDTTIQRTVQQKLEQLNQYPDFNNYLIFVLTKLKSEDEPTRSLSGLILKNNVKAHFQNFPNGVTDFIKSECLNNIGDSSPLIRATVGILITTIASKGELQNWPDLLPKLCSLLDSEDYNTCEGAFGALQKICEDSAEILDSDVLDRPLNIMIPKFLQFFKHSSPKIRSHAVACVNQFIISRTQALMLHIDSFIENLFALAGDEEPEVRKNVCRALVMLLEVRMDRLLPHMHNIVEYMLQRTQDQDENVALEACEFWLTLAEQPICKDVLVRHLPKLIPVLVNGMKYSDIDIILLKGDVEEDETIPDSEQDIRPRFHRSRTVAQQHDEDGIEEEDDDDDEIDDDDTISDWNLRKCSAAALDVLANVYRDELLPHILPLLKELLFHHEWVVKESGILVLGAIAEGCMQGMIPYLPELIPHLIQCLSDKKALVRSITCATLSRYAHWVVSQPPDTYLKPLMTELLKRILDSNKRVQEAACSAFATLEEEACTELVPYLAYILDTLVFAFSKYQHKNLLILYDAIGTLADSVGHHLNKPEYIQMLMPPLIQKWNMLKDEDKDLFPLLECLSSVATALQSGFLPYCEPVYQRCVNLVQKTLAQAMLNNAQPDQYEAPDKDFMIVALDLLSGLAEGLGGNIEQLVARSNILTLMYQCMQDKMPEVRQSSFALLGDLTKACFQHVKPCIADFMPILGTNLNPEFISVCNNATAAIGEISIQMGIEMQPYIPMVLHQLVEIINRPNTPKTLLENTAITIGRLGYVCPQEVAPMLQQFIRPWCTSLRNIRDNEEKDSAFRGICTMISVNPSGVIQDFIFFCDAVASWINPKDDLRDMFCKILHGFKNQVGDENWRRFSDQFPLPLKERLAAFYGV

Columns and labels:
Assay in all cases: fluorescence polarisation
WT Kapβ2 = molecular target: T1, WT Kapβ2
Kapβ2_(W460A:W730A) = molecular target: B1
TAMRA-(GR)20 [1] = molecular target: T2, TAMRA-(GR)20
TAMRA-(PR)20 [2] = molecular target: T3, TAMRA-(PR)20
TAMRA-(GR)20 [3] = molecular target: T2, TAMRA-(GR)20
TAMRA-(PR)20 [4] = molecular target: T3, TAMRA-(PR)20

Kd (WT Kapβ2) [µM]	Kd (Kapβ2_(W460A:W730A)) [µM]	affinity relative to that of FUS for Kapβ2_(W460A:W730A) (TAMRA-(GR)20 [1]) [times]	affinity relative to that of FUS for Kapβ2_(W460A:W730A) (TAMRA-(PR)20 [2]) [times]	affinity relative to that of FUS for Kapβ2_(W460A:W730A) (TAMRA-(GR)20 [3]) [times]	affinity relative to that of FUS for Kapβ2_(W460A:W730A) (TAMRA-(PR)20 [4]) [times]	Binder
0.0396 ± 0.0177	0.124 ± 0.0585					FUS-GFP (natural protein, UniProt P35637 1-526, looked up) MASNDYTQQATQSYGAYPTQPGQGYSQQSSQPYGQQSYSGYSQSTDTSGYGQSSYSSYGQSQNTGYGTQSTPQGYGSTGGYGSSQSSQSSYGQQSSYPGYGQQPAPSSTSGSYGSSSQSSSYGQPQSGSYSQQPSYGGQQQSYGQQQSYNPPQGYGQQNQYNSSSGGGGGGGGGGNYGQDQSSMSSGGGSGGGYGNQDQSGGGGSGGYGQQDRGGRGRGGSGGGGGGGGGGYNRSSGGYEPRGRGGGRGGRGGMGGSDRGGFNKFGGPRDQGSRHDSEQDNSDNNTIFVQGLGENVTIESVADYFKQIGIIKTNKKTGQPMINLYTDRETGKLKGEATVSFDDPPSAKAAIDWFDGKEFSGNPIKVSFATRRADFNRGGGNGRGGRGRGGPMGRGGYGGGGSGGGGRGGFPSGGGGGGGQQRAGDWKCPNPTCENMNFSWRNECNQCKAPKPDGPGGGPGGSHMGGNYGDDRRGGRGGYDRGGYRGRGGDRGGFRGGRGGGDRGGFGPGKMDSRGEHRQDRRERPY
		~3	~3	~1.5	~1.5	B1
